Where no end group is shown, it is not given here.
B1: peptide corresponding to amino acid residues 151-168 of human HMGB1 (peptide)
peptide: LKEKYEKDIAAYRAKGKP
modifications: also: biotinylated (position not given here)
B2: 2E11 HMGB1 mAb (antibody, V domains shown)
VH: QVQLQQSGPELVRPGTSVKISCKTSGYTFLTYWMNWVKQRPGQGLEWIGQIFPASDNTYYNEMFKDKATLTVDTSSSTAYIHLSSLTSEDTAVYFCAREDSMDYWGQGTSVTVSS
VL: DIQMTQTTSSLSASLGDRVTVSCSASRGINNYLNWYQQKPDGTVKFLIYYTSSLHSGVPSRFSGSGSGTDYSLTISNLEPEDIATYYCQQYSKLPWTFGGGTKLEFK
notes: Murine hybridoma monoclonal antibody (ATCC PTA-5431); also called 2E111-1-1-2; CT3-2E11
B3: peptide corresponding to amino acid residues 61-78 of human HMGB1 (peptide)
peptide: EDMAKADKARYEREMKTY
modifications: also: biotinylated (position not given here)
notes: also called HMGB1 61-78 peptide; huHMGB1-61-78-B
B4: peptide corresponding to amino acid residues 46-63 of human HMGB1 (peptide)
peptide: SERWKTMSAKEKGKFEDM
modifications: also: biotinylated (position not given here)
notes: also called HMGB1 46-63 peptide; huHMGB1-46-63-B
B6: 2G7 HMGB1 mAb (antibody, V domains shown)
VH: QVQLQQSGAELVRPGSSVKISCKASGYAFSSYWMNWVKQRPGQGLEWIGQIYPGDGDTNYNGKFKGKATLTSDKSSSTAYMQLSSLTSEDSAVYFCARREPYGSYVGFGFWGQGTLVTVSA
VL: ENVLTQSPAIMSASPGEKVTMTCSASSSVSYMHWYQQKSSTSPKLWIYDTSKLASGVPGRFSGSGSGNSYSLTISSMEAEDVATYYCFQGSGYPPTFGGGTKLEIK
notes: Murine hybridoma monoclonal antibody (ATCC PTA-5432); also called 3-2G7-1-1-1; CT3-2G7

Columns and labels:
2E11 HMGB1 mAb [1] = target: B2; experiment: competition ELISA: peptide in solution with the antibody, plate-bound HMGB1
[2] = target: B1; experiment: peptide ELISA (FIG. 13B)
Method: (§1) Biotinylated peptides bound to React-Bind Streptavidin-Coated Plates (Pierce, Rockford, Ill., Catalog # 15501) and non-biotinylated peptides bound to poly-D-lysine coated ELISA plates were used in anti-peptide ELISAs. Biotinylated peptides corresponding to particular 18 amino acid regions of human HMGB1, as well as a longer peptide corresponding to amino acid residues 9-85 of human HMGB1, were prepared and analyzed for binding to particular anti-HMGB1 monoclonal antibodies by ELISA. These peptides, and their respective sequences, are depicted in FIG. 13A. Poly-D-lysine coated plates were prepared by adding 60-100 μl/well of 0.1 mg/ml solution of poly-D-lysine in water. Plates were then incubated at room temperature for 5 minutes and were rinsed with water to remove the solution.
(§2) Briefly, using the molecular weight of the respective peptide, 1 mM peptide solutions were prepared in pyrogen-free water and diluted in 1× phosphate buffered saline. Plate wells were washed three times with 200 μl of PBS and 100 μl of the various peptide solutions were added to designated wells. The plates were then covered and incubated for 60 minutes at room temperature. The wells were then washed three times with PBS, 0.05% polyoxyethylenesorbitan (referred to herein as Tween 20™) using a volume greater than 100 μl. 200 μl of blocking buffer (5% nonfat dry milk in PBS, 0.05% Tween 20™) was added to each of the wells. The plates were covered and incubated for 60 minutes at room temperature. The wells were then washed three times with PBS, 0.05% Tween 20™ using a volume greater than 100 μl.

[3] = target: T1, peptide corresponding to amino acid residues 143-160 of human HMGB1 (human); experiment: peptide ELISA
T1 construct: Non-biotinylated
T1 peptide: PYEKKAAKLKEKYEKDIA

[4] = target: T2, peptide corresponding to amino acid residues 157-174 of human HMGB1 (human); experiment: peptide ELISA
T2 construct: Non-biotinylated; also called HMGB1 157-174 peptide; Human HMGB1-157-174
T2 peptide: KDIAAYRAKGKPDAAKKG

2G7 HMGB1 mAb [5] = target: B6; experiment: competition ELISA: peptide in solution against plate-bound recombinant rat HMGB1
Method: (§3) HMGB1 peptide binding experiments using 2G7 HMGB1 mAb were conducted. As described, biotinylated synthetic peptides corresponding to either amino acid residues 46-63 of human HMGB1 or amino acid residues 61-78 of human HMGB1 were prepared and analyzed for binding to 2G7 HMGB1 mAb (2G7) by ELISA. Briefly, 2 μg/ml of 2G7 HMGB1 mAb was added to plate wells containing either the HMGB1 46-63 peptide or the HMGB1 61-78 peptide at each of the indicated concentrations (0, 0.33, 1, 3, 9, 27, 81 and 243 μM peptide) for one hour at 25° C. to prepare antibody-peptide samples. ELISA plates were coated with 10 μg/ml of recombinant rat HMGB1, and incubated overnight at 4° C. The plates were then blocked with reconstituted milk for one hour at 37° C. Antibody-peptide samples were then added at the concentrations listed above and incubated for one hour at room temperature. The plates were then washed and incubated with Streptavidin-HRP. After washing, the plates were developed with TMB (Invitrogen, San Diego, Calif.) and absorbance at 655 nm was measured using a plate reader.

2E11 HMGB1 mAb [6] = target: B2; experiment: competition ELISA: peptide in solution against plate-bound HMGB1
2G7 HMGB1 mAb [7] = target: B6; experiment: competition ELISA: peptide (0.33-243 µM) with 2 µg/ml antibody, plate coated with recombinant rat HMGB1
Method: as §3

[8] = target: T3, peptide corresponding to amino acid residues 67-84 of human HMGB1 (human); experiment: peptide ELISA (FIG. 24)
T3 construct: Non-biotinylated; also called HMGB1 67-84 peptide; Human HMGB1-67-84
T3 peptide: DKARYEREMKTYIPPKGE
Method: as §1
as §2, with “200 μl of blocking buffer (5% nonfat dry milk in PBS, 0.05% Tween 20™) was added to each of the wells. The plates were covered and incubated for 60 minutes at room temperature. The wells were then washed three times with PBS, 0.05% Tween 20™ using a volume greater than 100 μl.” left out

[9] = target: B3; experiment: peptide ELISA (FIG. 13B)
Method: as §1, §2

recombinant rat HMGB1 = target: T4, recombinant rat HMGB1 (rat, UniProt P63159 1-215); experiment: sandwich ELISA, mAb as capture antibody, polyclonal antibody or 6E6 as detector
T4 sequence: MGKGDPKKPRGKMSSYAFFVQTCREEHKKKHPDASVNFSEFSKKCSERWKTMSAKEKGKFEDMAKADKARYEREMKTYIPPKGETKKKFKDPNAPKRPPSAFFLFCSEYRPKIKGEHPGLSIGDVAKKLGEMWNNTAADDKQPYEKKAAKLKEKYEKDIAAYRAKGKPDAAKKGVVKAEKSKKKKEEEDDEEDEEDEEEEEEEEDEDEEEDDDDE
Method: In the first method, ELISA plates were coated with a number of purified anti-HMGB1 mAbs (e.g., 2E11 HMGB1 mAb, 2G5 HMGB1 mAb, 2G7 HMGB1 mAb, 6E6 HMGB1 mAb), and incubated overnight at 4° C. The plates were then blocked with PBS, 1% BSA for one hour at 37° C. After washing, recombinant rat HMGB1 was added at the indicated concentrations, and the plates were incubated at room temperature for 1 hour. The plates were then washed and incubated with rabbit polyclonal antibodies against HMGB1 at 2 μg/ml (see U.S. Pat. Nos. 6,303,321, 6,448,223 and 6,468,533). After 1 hour at room temperature, the plates were washed and incubated for 30 minutes with goat anti-rabbit Ig-HPR (Jackson ImmunoResearch Laboratories, West Grove, Pa.) diluted at 1:1000 in PBS. After washing, the plates were developed with TMB (Invitrogen, San Diego, Calif.) and absorbance at 655 nm was measured using a plate reader.
As depicted in FIGS. 14 and 15, two different ELISA methods were used to examine the properties of particular anti-HMGB1 monoclonal antibodies. In one method, HMGB1 monoclonal antibodies 2E11 HMGB1 mAb, 2G5 HMGB1 mAb, 2G7 HMGB1 mAb, and 6E6 HMGB1 mAb, were used as capture antibodies and a polyclonal HMGB1 antibody was used as the detector antibody. […]

[10] = target: T5, peptide consisting of a scrambled sequence of amino acid residues 61-78 of human HMGB1; experiment: peptide ELISA
T5 construct: Non-biotinylated; scrambled control; also called Human HMGB1-61-78_scr
T5 peptide: AKDYMEARKDTEYKMARE

[11] = target: T6, peptide corresponding to amino acid residues 53-70 of human HMGB1 (human); experiment: peptide ELISA
T6 construct: Non-biotinylated; also called HMGB1 53-70 peptide; huHMGB1-53-70
T6 peptide: SAKEKGKFEDMAKADKAR

[12] = target: T6, peptide corresponding to amino acid …; experiment: peptide ELISA (FIGS. 22 and 23)
Method: as §1
as §2, with “200 μl of blocking buffer (5% nonfat dry milk in PBS, 0.05% Tween 20™) was added to each of the wells. The plates were covered and incubated for 60 minutes at room temperature. The wells were then washed three times with PBS, 0.05% Tween 20™ using a volume greater than 100 μl.” left out

CHO HMGB2 = target: T7, CHO HMGB2 (Chinese hamster (CHO cells), UniProt A0A8C2QD03 1-210); experiment: Western blot
T7 construct: also called non-recombinant (natural) HMGB2 from Chinese Hamster Ovary (CHO) cells
T7 sequence: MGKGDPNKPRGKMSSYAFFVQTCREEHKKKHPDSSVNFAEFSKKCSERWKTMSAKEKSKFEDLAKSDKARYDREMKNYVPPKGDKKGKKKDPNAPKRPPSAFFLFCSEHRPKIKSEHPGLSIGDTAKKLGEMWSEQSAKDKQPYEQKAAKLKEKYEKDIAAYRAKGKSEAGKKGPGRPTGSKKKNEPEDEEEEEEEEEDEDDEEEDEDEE

[13] = target: B4; experiment: peptide ELISA (FIG. 13B)
Method: as §1, §2

[14] = target: T8, peptide corresponding to amino acid residues 40-57 of human HMGB1 (human); experiment: peptide ELISA
T8 construct: Non-biotinylated; also called HMGB1 40-57 peptide; Human HMGB1-40-57
T8 peptide: EFSKKCSERWKTMSAKEK

[15] = target: T9, peptide corresponding to amino acid residues 46-63 of human HMGB2 (human, also: biotinylated (position not given here)); experiment: peptide ELISA
T9 construct: also called HMGB2 46-63 peptide; huHMGB2-46-63-B
T9 peptide: SERWKTMSAKEKSKFEDM

[16] = target: T10, peptide consisting of a scrambled sequence of amino acid residues 46-63 of human HMGB1; experiment: peptide ELISA
T10 construct: Non-biotinylated; scrambled control; also called Human HMGB1-46-63-scr
T10 peptide: RMKEESSAKDGWFTEMKK

B1
binding result (2E11 HMGB1 mAb [1]): binds

B2
binding result [2]: binds | binding result [3]: no binding (tested: 2 µg/ml antibody) | binding result [4]: no binding (tested: 2 µg/ml antibody)

B3
binding result (2G7 HMGB1 mAb [5]): no binding (tested: up to 243 µM peptide)

B4
binding result (2E11 HMGB1 mAb [6]): no binding | binding result (2G7 HMGB1 mAb [7]): binds

B5: 6E6 HMGB1 mAb (antibody, V domains shown)
VH: EVQLQQSGAELVKPGASVKLSCTASGFNIKDTYMHWVKQRPEQGLEWIGRIDPANGNTKYDPKFQGKATITADTSSNTAYLQLSSLTSEDTAVYYCARGAYWGQGTLVTVSA
VL: DIVLTQSPASLAVSLGQRATISCKASQSVDYDGDSYMNWYQQKPGQPPKLLIYAASNLESGIPARFSGSGSGTDFTLNIHPVEEEDAATYYCQQSNEDPFTFGSGTKLEIK
notes: Murine hybridoma monoclonal antibody (ATCC PTA-5433); also called 6E6-7-1-1; CT3-6E6
binding result [8]: binds | binding result [9]: binds | binding result (recombinant rat HMGB1): binds | binding result [10]: no binding (tested: 2 µg/ml antibody) | binding result [11]: no binding (tested: 2 µg/ml antibody)

B6
binding result [12]: binds | binding result (CHO HMGB2): no binding (tested: 2 µg/ml antibody) | binding result [13]: binds | binding result (recombinant rat HMGB1): binds | binding result [14]: no binding (tested: 2 µg/ml antibody) | binding result [15]: no binding (tested: 2 µg/ml antibody) | binding result [16]: no binding (tested: 2 µg/ml antibody)

Reference: patent US20050152903A1 (CRITICAL THERAPEUTICS, published 2005)
